The values that follow come from patent publication US20230235054A1 (BIOATLA, published 2023).

T1: huNectin4-His (human, UniProt Q96NY8 32-349)
T1 construct: Immobilized on the SPR chip; also called humanNectin4; human Nectin4; not shown: His tag
T1 sequence (looked up): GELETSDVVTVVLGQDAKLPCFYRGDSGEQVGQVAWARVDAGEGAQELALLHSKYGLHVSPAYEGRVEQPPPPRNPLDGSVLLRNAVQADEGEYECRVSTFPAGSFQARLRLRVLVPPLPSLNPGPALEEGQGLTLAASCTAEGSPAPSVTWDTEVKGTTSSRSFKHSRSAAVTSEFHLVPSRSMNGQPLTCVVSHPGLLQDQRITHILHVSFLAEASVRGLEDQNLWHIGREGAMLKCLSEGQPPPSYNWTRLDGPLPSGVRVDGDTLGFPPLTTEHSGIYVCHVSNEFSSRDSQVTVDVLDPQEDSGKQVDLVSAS

T2: human Nectin-4 on cells (human, UniProt Q96NY8 32-510)
T2 construct: whole, on cells; also called HEK293 cells expressing human Nectin-4; T47D cells that express human Nectin-4
T2 sequence (looked up): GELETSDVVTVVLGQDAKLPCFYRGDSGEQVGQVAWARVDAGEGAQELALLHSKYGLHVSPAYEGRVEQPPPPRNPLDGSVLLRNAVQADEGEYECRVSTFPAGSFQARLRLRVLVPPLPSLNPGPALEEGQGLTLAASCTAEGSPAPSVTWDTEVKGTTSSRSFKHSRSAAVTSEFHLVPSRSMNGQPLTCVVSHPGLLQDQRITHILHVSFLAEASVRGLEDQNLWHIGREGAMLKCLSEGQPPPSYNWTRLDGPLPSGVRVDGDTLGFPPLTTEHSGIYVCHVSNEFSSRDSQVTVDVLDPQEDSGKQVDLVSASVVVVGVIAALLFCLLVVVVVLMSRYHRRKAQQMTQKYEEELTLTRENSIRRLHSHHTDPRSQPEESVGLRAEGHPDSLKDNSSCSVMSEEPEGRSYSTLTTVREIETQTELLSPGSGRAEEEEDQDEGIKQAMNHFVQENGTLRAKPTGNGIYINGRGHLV

T3: recombinant human Nectin4 antigen (human, UniProt Q96NY8 32-349)
T3 construct: construct not described
T3 sequence (looked up): T1 sequence (looked up)

B1: BAP-143-wildtype (antibody, V domains shown)
VH: EVQLVESGGGLVQPGGSLRLSCAASGFTFSSYNMNWVRQAPGKGLEWVSYISSSSSTIYYADSVKGRFTISRDNAKNSLSLQMNSLRDEDTAVYYCARAYYYGMDVWGQGTTVTVSS
VL: DIQMTQSPSSVSASVGDRVTITCRASQGISGWLAWYQQKPGKAPKFLIYAASTLQSGVPSRFSGSGSGTDFTLTISSLQPEDFATYYCQQANSFPPTFGGGTKVEIK
notes: 150 kDa used in SPR; also called BAP143-00-00; benchmark (BM)
B2: BAP-143-00-06 (antibody, V domains shown)
VH: B1 VH with M104D
VL: B1 VL
notes: Used as a conjugate with a linker payload (CAB ADC)
B3: BAP-143-00-05 (antibody, V domains shown)
VH: B1 VH with R98E
VL: B1 VL
notes: as for B2
B4: BAP-143-00-03 (antibody, V domains shown)
VH: B1 VH
VL: B1 VL with P96D
notes: as for B2
B5: BAP-143-00-04 (antibody, V domains shown)
VH: B1 VH with M34D
VL: B1 VL
notes: as for B2
B6: BAP-143-00-01 (antibody, V domains shown)
VH: B1 VH
VL: B1 VL with L33E
notes: as for B2
B7: BAP-143-00-02 (antibody, V domains shown)
VH: B1 VH
VL: B1 VL with F94E
notes: as for B2
B8: BAP-143-06-33-03 (antibody, V domains shown)
VH: QVQLVQSGAEVKKPGASVKVSCKASGFTFSSYNMNWVRQARGQRLEWIGYISSSSSTIYYADSVKGRFTISRDNSKNTLYLQMNSLRAEDTAVYYCARAYYYGMDKWGQGTLVTVSS
VL: B1 VL with F94E
notes: as for B2
B9: BAP-143-06-24-16 (antibody, V domains shown)
VH: EVQLVQSGAEVKKPGATVKISCKVSGFTFSSYNMNWIRQSPSRGLEWLGYISSSSSTIYYADSVKGRFTISRDNSKNTLYLQMNSLRAEDTAVYYCARAYYYGDDVWGQGTLVTVSS
VL: B1 VL with R24H
notes: as for B2
B10: BAP-143-06-33-16 (antibody, V domains shown)
VH: B9 VH
VL: B1 VL with L33E
notes: as for B2
B11: BAP-143-07-03-12 (antibody, V domains shown)
VH: B1 VH with V106K
VL: B1 VL with L33E
notes: as for B2

Changes are numbered by the printed parent chain.

One test deals with T1, huNectin4-His. Put plainly: SPR, huNectin4-His immobilized, pH 6.5. The protocol: (§1) Binding kinetics of anti-Nectin4 antibodies were measured by surface plasmon resonance using a SPR2/4 instrument (Sierra Sensors, Hamburg, Germany) and flat amine sensor chips. The SPR sensor contained four flow cells (FC1-FC4), each of which was addressed individually or in groups. huNectin4-His was immobilized in FC2, and cynoNectin4-mFc in FC4. No protein was immobilized in FC1 and FC3 which were used as control surfaces for FC2 and FC4, respectively.
(§2) All injections were done at a flow rate of 25 μL/min at 25° C. The sensor surface was activated with 1-ethyl-3-(3-dimethylaminopropyl)-carbodiimide (EDC) and N-hydroxysuccinimide (NHS) (200 mM/50 mM) for 480 seconds. HuNectin4-His (2 μg/mL in 10 mM NaAc, pH4.5) was injected for 480s and the surface was inactivated by injecting 1M ethanolamine-HCl for 480s. CynoNectin4 was immobilized using the same conditions as described for huNectin4-His, except that the cynoNectin4 was diluted into 10 mM NaAc buffer having pH 5.0. The control surface was activated and deactivated using the same conditions, but without injecting protein. PBST buffer (PBS pH 7.4 with 0.05% TWEEN20™) was used as running buffer for the surface preparation. The running solution was switched to PBST with 30 mM sodium bicarbonate with the pH adjusted as indicated in the figures before the analyte injections. The instrument was equilibrated with the running solution for one hour before the first analyte injection.
(§3) The off-rate was measured for 360s. The chip surface was regenerated after each cycle of interaction analysis by injecting 6 μL of 10 mM glycine (pH 2.0). Flow cells 1 and 3 without immobilized protein were used as control surfaces for reference subtraction.
Molecule B1 showed a Kd of 0.685 nM. In other words, the sub-nanomolar range.

B2: binding was put at a Kd of 0.22 nM, the koff was found to be 0.000726 s⁻¹ and the kon was 3.3e+06 M⁻¹ s⁻¹.

As to B3, the Kd was 6.23 nM, the koff came to 0.00453 s⁻¹ and the kon was 726000 M⁻¹ s⁻¹.

Consider B4, for which the Kd was 2.97 nM, the koff came to 0.00229 s⁻¹ and the kon is 771000 M⁻¹ s⁻¹.

Molecule B5 displayed a Kd of 1.5 nM, a koff of 0.00439 s⁻¹ and a kon of 2.94e+06 M⁻¹ s⁻¹.

The molecule B6 yielded a Kd of 5.15 nM, a koff of 0.00245 s⁻¹ and a kon of 476000 M⁻¹ s⁻¹.

The target in another test is T1, huNectin4-His. Put plainly: SPR, huNectin4-His immobilized, pH 7.4. The protocol: as §1, §2, §3
B1: the Kd was found to be 0.943 nM.

Molecule B2 yielded a Kd of 0.406 nM, a koff of 0.00143 s⁻¹ and a kon of 3.52e+06 M⁻¹ s⁻¹.

B3 had a Kd of 5.09 nM, a koff of 0.0062 s⁻¹ and a kon of 1.22e+06 M⁻¹ s⁻¹.

B4 yielded a Kd of 2.45 nM, a koff of 0.0032 s⁻¹ and a kon of 1.31e+06 M⁻¹ s⁻¹.

For B5, the Kd was determined as 1.42 nM, the koff stood at 0.00525 s⁻¹ and the kon came to 3.71e+06 M⁻¹ s⁻¹.

Molecule B6 came in with a Kd of 3.89 nM, a koff of 0.00267 s⁻¹ and a kon of 686000 M⁻¹ s⁻¹.

Another test concerns the target T2, human Nectin-4 on cells. Put plainly: FACS, T47D cells.
Consider B1, for which the “Ratio (pH 7.4/6.0) of EC50” value came out at 0.9.

Consider B2, for which the “Ratio (pH 7.4/6.0) of EC50” value turned out to be 2.6.

For B3, the “Ratio (pH 7.4/6.0) of EC50” value amounted to 2.4.

Turning to B4, the “Ratio (pH 7.4/6.0) of EC50” value was 3.6.

As for B5, the “Ratio (pH 7.4/6.0) of EC50” value was 2.1.

In the case of B7, the “Ratio (pH 7.4/6.0) of EC50” value is 2.9.

Consider B6, for which the “Ratio (pH 7.4/6.0) of EC50” value amounted to 6.7.

A further test deals with T2, human Nectin-4 on cells. Put plainly: FACS, T47D cells. The source holds these as a separate data set.
As for B1, the “Ratio (pH 7.4/6.0) of EC50” value turned out to be 1.2.

Consider B8, for which the “Ratio (pH 7.4/6.0) of EC50” value came out at 14.8.

For the molecule B9, the “Ratio (pH 7.4/6.0) of EC50” value is 2.9.

In the case of B10, the “Ratio (pH 7.4/6.0) of EC50” value amounted to 3.4.

As for B11, the “Ratio (pH 7.4/6.0) of EC50” value stood at 4.5.

Regarding B6, the “Ratio (pH 7.4/6.0) of EC50” value was found to be 6.2.

The next test concerns the target T3, recombinant human Nectin4 antigen. Put plainly: ELISA, coated antigen, PSB pH 6.0. The protocol:
1) Coat ELISA plates with 100 μL of 1 μg/mL recombinant human Nectin4 antigen or cynoNectin4 antigen in carbonate-bicarbonate coating buffer. […] 2) Cover plates with sealing film and incubate overnight at 4° C. [0444] 3) Decant plates and tap out residual liquid on a stack of paper towels. [0445] 4) Wash wells twice by dispensing 200 μL of pH 6.0 or pH 7.4 ELISA incubation buffer to the wells and completely aspirate the contents. [0446] 5) Add 200 μL of pH 6.0 or pH 7.4 ELISA incubation buffer to the wells. Cover with sealing film and place the plate onto a plate shaker set to 50 rpm for 60 minutes at room temperature. [0447] 6) Decant plates and tap out residual liquid on a stack of paper towels. […] 7) Serially dilute test articles in 3-fold dilutions starting at 3000 ng/mL in pH 6.0 or pH 7.4 ELISA incubation buffer. […] 8) Add 100 μL/well of diluted test articles to the plates [0450] 9) Cover with sealing film and place the plates onto a plate shaker set to 50 rpm for 60 minutes at room temperature. [0451] 10) Decant plates and tap out residual liquid on a stack of paper towels. [0452] 11) Wash wells three times by dispensing 200 μL of pH 6.0 or pH 7.4 ELISA wash buffer to the wells and completely aspirate the contents. […] 12) Dilute the HRP secondary antibody at 1:2500 in pH 6.0 or pH 7.4 ELISA incubation buffer. [0454] […] 14) Cover with sealing film and place the plates onto a plate shaker set to 50 rpm for 60 minutes at room temperature. […] 15) Decant plates and tap out residual liquid on a stack of paper towels. […] 16) Wash wells three times by dispensing 200 μL of pH 6.0 or pH 7.4 ELISA wash buffer to the wells and completely aspirate the contents. [0458] 17) Dispense 50 μL per well of the TMB substrate solution into all wells of the plates.
Take B1: the EC50 stood at 0.0316 µg/mL.

As to B2, the EC50 is 0.0247 µg/mL.

Take B3: the EC50 amounted to 0.0441 µg/mL.

For B4, the EC50 is 0.0344 µg/mL.

B5: the EC50 turned out to be 0.0258 µg/mL.

Turning to B7, the EC50 was found to be 0.0876 µg/mL.

For B6, the EC50 stood at 0.0313 µg/mL.

The next test has as its target T1, huNectin4-His. Put plainly: SPR, huNectin4-His immobilized, pH 6.0. The protocol: as §1, §2, §3
Molecule B1 returned a Kd of 1.49 nM.

B2 returned a Kd of 1.61 nM, a koff of 0.00114 s⁻¹ and a kon of 707000 M⁻¹ s⁻¹.

On to B3, for which the Kd is 6.37 nM, the koff is 0.00242 s⁻¹ and the kon is 380000 M⁻¹ s⁻¹.

Molecule B4 yielded a Kd of 6.02 nM, a koff of 0.00122 s⁻¹ and a kon of 203000 M⁻¹ s⁻¹.

With B5, the Kd worked out at 2.58 nM, the koff came to 0.00155 s⁻¹ and the kon turned out to be 602000 M⁻¹ s⁻¹.

In turn, B6 had a Kd of 12.3 nM, a koff of 0.00367 s⁻¹ and a kon of 298000 M⁻¹ s⁻¹.
